Patent publication US20170209529A1 (BRIGHAM AND WOMEN S HOSPITAL, published 2017)
“And” between values parts separate entries of the source, which are not always exact repeats. Identical values can stand only once. Like-named read-outs stand apart in the source and are kept apart here. One block for each binder: values may come before it. Bridge positions count the residues as written; N and C are the ends.

Assays:
[1] = molecular target: T1, soluble human FcRn (shFcRn) (human, UniProt P55899 24-297; P61769 21-119); assay: SPR (Biacore), immobilized shFcRn, pH 6
T1 construct: For crystallography it was expressed in CHOK1SV cells and deglycosylated with PNGaseF; biotinylated for phage selection; also called hFcRn/β2m; FcRn-biotin

[2] = molecular target: T1, soluble human FcRn (shFcRn); assay: SPR (Biacore), immobilized shFcRn, pH 6, steady-state fit
[3] = molecular target: T1, soluble human FcRn (shFcRn); assay: SPR (Biacore), immobilized shFcRn, pH 6; data fit column: aggregates/non specific
[4] = molecular target: T1, soluble human FcRn (shFcRn); assay: SPR (Biacore), pH 6.0
Experimental: (§1) SPR analyses: SPR analyses were conducted using a Biacore 3000 or T100 instrument. Research-grade CMS sensor chips and all coupling reagents for immobilization were purchased from Biacore. All proteins were cross-linked to the dextran surface of a CM5 sensor chip by standard amine coupling chemistry as recommended by Biacore. […] Binding experiments were performed at pH 6.0 or 7.4 using 50 mM phosphate, 100 mM sodium chloride and 0.01% surfactant P20. […] Bound albumin protein was then allowed to dissociate from the chip for 5 minutes with running buffer. Any remaining albumin was removed from the chip with a 60 second injection (2 cycles) of pH 8.0 Tris-HCl regeneration buffer (1 M Tris pH 8.0) at 25 μL/min flow rate. The binding responses recorded near the end of the association phase were plotted as a function of concentration. Equilibrium dissociation constants (KD), were derived from sensorgrams using the 1:1 binding model of BlAevaluation software 4.1.

[5] = molecular target: T1, soluble human FcRn (shFcRn); assay: SPR (Biacore), pH 7.4
Experimental: as §1

[6] = molecular target: T1, soluble human FcRn (shFcRn); assay: method not stated in the sentence (Example 5, description of peptides); approximate KD in the Example 5 text, pH and method not stated
[7] = molecular target: T1, soluble human FcRn (shFcRn); assay: phage display hit; X-ray crystallography
[8] = molecular target: T1, soluble human FcRn (shFcRn); assay: SPR (Biacore), immobilized shFcRn, pH 6, fit 'ss'
[9] = molecular target: T1, soluble human FcRn (shFcRn); assay: SPR (Biacore), immobilized shFcRn, pH 7.4
[10] = molecular target: T1, soluble human FcRn (shFcRn); assay: SPR (Biacore), immobilized shFcRn, pH 6, 2 site fit
[11] = molecular target: T1, soluble human FcRn (shFcRn); assay: SPR (Biacore), Kd pH 7.4 divided by Kd pH 6.0
[12] = molecular target: T1, soluble human FcRn (shFcRn); assay: SPR (Biacore), immobilized shFcRn, pH 6, steady-state fit; remark: listed apart in the source
[13] = molecular target: T1, soluble human FcRn (shFcRn); assay: SPR (Biacore), immobilized shFcRn, pH 7.4; remark: listed apart in the source
[14] = molecular target: T1, soluble human FcRn (shFcRn); assay: SPR (Biacore), pH 6.0; pH 6.0
[15] = molecular target: T1, soluble human FcRn (shFcRn); assay: SPR (Biacore), Kd pH 7.4 divided by Kd pH 6.0; remark: listed apart in the source
[16] = molecular target: T1, soluble human FcRn (shFcRn); assay: SPR (Biacore), immobilized shFcRn, pH 6, steady-state fit; pH 6; first of two values in the cell, marked *; immobilized shFcRn

- Kd [1]: 1940 nM
Binder: YMTCKWDDGFSXEYV (N-terminal acetyl; C-terminal amide; Pen (penicillamine) at position 12) [SYN1168]

- Kd [2]: 680 nM
Binder: Ac-AGRYFCTKWKHGWCEEVGTG-NH2 (disulfide 6-14 (inferred)) [SYN1709]

- Kd [1]: 97600 nM
Binder: Ac-TCKWDDGFSCEYV-NH2 (disulfide 2-10 (inferred)) [SYN1162]

- Kd [1]: 870 nM
Binder: YMTXKWDDGFSXEYV (N-terminal acetyl; C-terminal amide; Pen (penicillamine) at positions 4 and 12) [SYN1169]

- Kd [1]: 40300 nM
Binder: Ac-YMTCKWDDGFSCE-NH2 (disulfide 4-12 (inferred)) [SYN1165]

- binding result [3]: no binding
Binder: Ac-VMHAFWDEEFRAEYV-NH2 [SYN1559]

- Kd [4]: 31 nM
- Kd [5]: 170 nM
- Kd [6]: ~25 nM
B1: SYN1327 (peptide)
peptide: RFXTGHFGXLYPC
modifications: N-terminal acetyl; C-terminal amide; Pen (L-penicillamine) at 3; Sar (sarcosine) at 9; NMeLeu (L-N-methylleucine) at 10

- binding result [7]: binds
Binder: Ac-AGVMHCFWDEEFKCDQGGTGGGK-NH2 (disulfide 6-14 (inferred)) [SYN514]

- Kd [2]: 4620 nM
Binder: Ac-AGRYFCTKWKHGWCEEV-NH2 (disulfide 6-14 (inferred)) [SYN1712]

- Kd [8]: 57000 nM
Binder: Ac-YATCKWDDGFSCEYV-NH2 (disulfide 4-12 (inferred)) [SYN1145]

- binding result [1]: no binding
Binder: Ac-YMTCKADDGFSCEYV-NH2 (disulfide 4-12 (inferred)) [SYN1148]

- Kd [9]: 8600 nM
- Kd [10]: 250 nM
- Kd Ratio 7.4/6.0 [11]: 34.4
Binder: Ac-YMACKWDDGFSCEYV-NH2 (disulfide 4-12 (inferred)) [SYN1146]

- Kd [9]: 400 nM
- Kd [10]: 180 nM
- Kd Ratio 7.4/6.0 [11]: 2.2
Binder: Ac-YMTCKWDAGFSCEYV-NH2 (disulfide 4-12 (inferred)) [SYN1150]

- Kd [9]: 27000 nM
- Kd [10]: 470 nM
- Kd Ratio 7.4/6.0 [11]: 56
- Kd [12]: 480 nM
Binder: Ac-YMTCAWDDGFSCEYV-NH2 (disulfide 4-12 (inferred)) [SYN1147]

- binding result [1]: no binding
Binder: Ac-YMTCKWDDGASCEYV-NH2 (disulfide 4-12 (inferred)) [SYN1152]

- Kd [2]: 900 nM
Binder: Ac-RYFCTKWKHGWCEEVGTGGGK-NH2 (disulfide 4-12 (inferred)) [SYN1706]

- Kd [4]: 500 nM
Binder: Ac-RYFCTKWKHGWCEEVGT-NH2 (disulfide 4-12 (inferred)) [SYN1753]

- Kd [9]: 18000 nM
- Kd [10]: 230 nM
- Kd Ratio 7.4/6.0 [11]: 78
Binder: Ac-AGYMTCKWDDGFSCEYVGTGGGK-NH2 (disulfide 6-14 (inferred)) [SYN515]

- Kd [2]: 490 nM
Binder: Ac-AGRYFCTKWKHGWCEEVGTGGG-NH2 (disulfide 6-14 (inferred)) [SYN1707]

- Kd [4]: 3.6 nM
B2: SYN3258 (peptide)
peptide: Ac-RYFCTKWKHGWCEEVGTGGGRYFCTKWKHGWCEEVGT-NH2
modifications: disulfide 4-12, 24-32 (inferred)
notes: 37-mer, two SYN1753 units joined by GGG; also called Ac-[SYN1753]-GGG-[SYN1753]-CONH2

- binding result [1]: no binding
Binder: Ac-CKWDDGFSCEYV-NH2 (disulfide 1-9 (inferred)) [SYN1163]

- Kd [13]: 13100 nM
- Kd [5]: 13100 nM
- Kd [2]: 450 nM and 500 nM
- Kd [14]: 500 nM
- Kd Ratio 7.4/6.0 [15]: 29
Binder: Ac-AGRYFCTKWKHGWCEEVGTGGGK-NH2 (disulfide 6-14 (inferred)) [SYN571]

- Kd [2]: 570 nM
Binder: Ac-AGRYFCTKWKHGWCEEVGTGG-NH2 (disulfide 6-14 (inferred)) [SYN1708]

- Kd [2]: 590 nM
Binder: Ac-AGRYFCTKWKHGWCEEVGT-NH2 (disulfide 6-14 (inferred)) [SYN1710]

- Kd [1]: 570 nM
Binder: Ac-YMTCKWDDGFSCEY-NH2 (disulfide 4-12 (inferred)) [SYN1164]

- Kd [2]: 1560 nM
Binder: Ac-AGRYFCTKWKHGWCEEVG-NH2 (disulfide 6-14 (inferred)) [SYN1711]

- Kd [1]: 2030 nM
Binder: YMTXKWDDGFSCEYV (N-terminal acetyl; C-terminal amide; Pen (penicillamine) at position 4) [SYN1167]

- Kd [9]: 1100 nM
- Kd [16]: 31 nM
- Kd Ratio 7.4/6.0 [11]: 61
- Kd [12]: 18 nM
Binder: Ac-VMKCWWDEEFLCRAF-NH2 (disulfide 4-12 (inferred)) [SYN1536]

- Kd [2]: 39400 nM
Binder: Ac-RYFCTKWKHAWCEEV-NH2 (disulfide 4-12 (inferred)) [SYN1550]

- Kd [2]: 9500 nM
Binder: Ac-RYFCTKWKHGWCEAV-NH2 (disulfide 4-12 (inferred)) [SYN1553]

- Kd [2]: 840 nM
Binder: Ac-GRYFCTKWKHGWCEEVGTGGGK-NH2 (disulfide 5-13 (inferred)) [SYN1705]

- Kd [9]: 1100 nM
- Kd [4]: 32 nM
- Kd [5]: 1100 nM
- Kd Ratio 7.4/6.0 [11]: 34
- Kd [12]: 32 nM
B3: SYN1383 (peptide)
peptide: Ac-VMHCFWDEEFRCEYV-NH2
modifications: disulfide 4-12 (inferred)
notes: Truncated and SAR-optimized analog of SYN514
